In patent US20120270273 one finds activity data, which are given here for four substances.

Holding throughout (test): cell_activity
Data set [1] deals with Klf4-dTALE (synthetic (Xanthomonas campestris pv. armoraciae Hax3 scaffold)). The note with it: mCherry reporter; endogenous KLF4 mRNA up 2.2±0.1 fold (p227).
Data set [2] relates to Sox2-dTALE (synthetic (Xanthomonas campestris pv. armoraciae Hax3 scaffold)). The note with it: mCherry reporter; endogenous SOX2 mRNA up 5.5±0.1 fold (p227).
In data set [3] the test system is cMyc-dTALE (synthetic (Xanthomonas campestris pv. armoraciae Hax3 scaffold)). As to conditions: mCherry reporter, 293FT.
Data set [4] relates to ZF-VP64 (erbB-2 zinc finger) (synthetic). As to conditions: mCherry reporter induction, 293FT; positive control.

Consider KLF4 proximal promoter site, for which the activity in data set [1] was over 20 fold.

In turn, SOX2 proximal promoter site showed an activity in data set [2] of over 20 fold.

In the case of c-MYC proximal promoter site, the activity in data set [3] was over 20 fold.

erbB-2 promoter ZF site returned an activity in data set [4] of 16 fold.
